# Test results published in patent US20230295308A1, “ANTAGONISTIC BIPARATOPIC ANTIBODIES THAT SPECIFICALLY BIND FIBROBLAST GROWTH FACTOR RECEPTOR 2 AND METHODS OF USING SAME” (The Broad Institute, Inc., priority 2020, published 2023).
# “Also recorded” adds a separate entry of the source.
# T1: 15AA-Nterm FGFR2
# T1 peptide: RPSFSLVEDTTLEPE
# Experiments:
# [1] = biological target: FGFR2b alpha IIIb antigen (UniProt P21802); test: SPR (Biacore), KD matrix by the two arms; unit M from FIG. 17B and paragraph 180
# [2] = biological target: FGFR2b alpha IIIb antigen (UniProt P21802); test: SPR (Biacore), antibody immobilized, FGFR2b alpha IIIb in flow
# [3] = system: NIH3T3 cells overexpressing FGFR2-BICC1 fusion; test: NIH3T3 FGFR2-BICC1 cell confluency, Incucyte (FIGS. 19A-19E); format: cell-based; settings: 60 hours, 0.013-1 μM
# Method: FIGS. 19A-19E present graphs showing the ability of biparatopic antibodies to impact FGFR2-fusion driven cell growth in NIH3T3 cells molecularly engineered to overexpress FGFR2-BICC1 fusion. […] The nomenclature of the biparatopic antibodies is based on the designations and descriptions of the parental antibodies presented in FIG. 7B.
# The impact of biparatopic antibodies on FGFR2-fusion driven cell growth was assessed in a cell-based assay using biparatopic antibodies that bind to the ECD of FGFR2 and generated as described supra (Example 4). As described herein, the biparatopic antibodies were added to cultures of cells (e.g., NIH3T3 cells or BaF3 cells) molecularly engineered to overexpress FGFR2 fusion.
# For assays using NIH3T3 cells, (FIGS. 19A-19E), NIH3T3 cells overexpressing a FGFR2-BICC1 fusion construct were plated in 384 black well plates at a concentration of 1000 cells/well overnight. 6 parental antibodies and 13 biparatopic antibodies were added to each well in duplicates at various concentrations ranging from 1 μM to 0.013 μM (1 μM, 0.833 μM, 0.600 μM, 0.450 μM, 0.316 μM, 0.233 μM, 0.166 μM, 0.125 μM, 0.091 μM, 0.066 μM, 0.048 μM, 0.035 μM, 0.025 μM, 0.018 μM, and 0.013 μM). The cell confluency was measured using Incucyte at 60 hours post treatment, and the IC50 curves were generated using non-linear fit in PRISM 9 software.
# [4] = biological target: FGFR2 on SNU-16 gastric cancer cell line with FGFR2 amplification (UniProt P21802); test: FACS on SNU-16 cells, % No. of cells with FITC+ [cont.]
# FGFR2b alpha IIIb = FGFR2b alpha IIIb (Homo sapiens, UniProt P21802); test: Surface Plasmon Resonance (SPR) binding; settings: FGFR2b alpha IIIb antigen
# Sequence of FGFR2b alpha IIIb (P21802 22-378 isoform P21802-3): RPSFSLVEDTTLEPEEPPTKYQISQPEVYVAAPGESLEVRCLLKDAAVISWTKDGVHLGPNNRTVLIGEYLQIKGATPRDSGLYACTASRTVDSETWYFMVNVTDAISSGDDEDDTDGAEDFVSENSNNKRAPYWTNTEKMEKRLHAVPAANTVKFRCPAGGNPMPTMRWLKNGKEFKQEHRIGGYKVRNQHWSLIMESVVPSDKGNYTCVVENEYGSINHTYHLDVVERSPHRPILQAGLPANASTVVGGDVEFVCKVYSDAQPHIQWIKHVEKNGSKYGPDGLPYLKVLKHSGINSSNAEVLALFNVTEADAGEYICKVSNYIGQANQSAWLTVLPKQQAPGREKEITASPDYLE
# Source text: FIGS. 17A-17C provide a schematic and tabular data related to assessments made to compare the avidity of biparatopic antibodies to that of their parental (bivalent monospecific) antibodies.
# Surface Plasmon Resonance (SPR) as known in the art was used to determine the binding affinities of biparatopic antibodies. The SPR-based binding method involves immobilization of a ligand (antibody) on the surface of a sensor chip. The binding partner of interest or an analyte (FGFR2 ECD) flow through the flow channel. Different concentrations of an analyte flow over the ligand, and the interactions of ligand-analyte can be characterized. The SPR signal originates from changes in the refractive index of the […] at the surface of the sensor chip. The increase in mass associated with a binding event causes a proportional increase in the refractive index, which is observed as a change in response-resonance signal. In brief, for the experiments using the antibodies described herein, the SPR assay was carried out by immobilizing antibodies (used as […]) at a concentration ranging from 1-1000 nM and flow-through FGFR2b alpha IIIb antigen (used as […]). The antibody kinetic data for the interaction with FGFR2b alpha IIb antigen were fitted to the 2-state and 1-1 binding models using Biocore software. The mean and standard deviation KD values are derived from at least three independent runs.
# Using SPR, the kinetics of 6 monospecific and 13 biparatopic antibodies for binding to a single antigen, FGFR2b alpha IIb, was measured so as to compare avidity of the biparatopic antibodies to their parental antibodies. Without wishing to be bound by theory, it was expected that the biparatopic antibodies would bind to the FGFR2 antigen more tightly than their parental antibodies and that the tighter binding biparatopic antibodies among the antibodies that were assessed would be more efficient in blocking FGFR2 dimerization (FIG. 17A), thereby leading to inhibition or blocking of constitutive FGFR2 signaling and/or oncogenic transformation. […]
# [5] = system: FGFR2-PHDGH fusion expressing BaF3 cells; test: growth of BaF3 cells expressing FGFR2-PHGDH fusion, absence of FGF ligands (FIG. 9); format: cell-based; settings: BaF3 FGFR2-PHGDH fusion
# Method: Antibodies A-F were tested to determine whether they could inhibit the ligand-induced growth of BaF3 cells expressing FGFR2IIIb. Antibodies C, D, and E, which bind FGFR2 Ig-2 and Ig-3, were effective in blocking ligand-induced growth of BaF3 cells expressing wild-type FGFR2IIIb (FIG. 8). The effects of antibodies A-F were then tested on BaF3 cells expressing FGFR2-PHDGH fusions. […] Antibody F inhibited the FGFR2-PHDGH activating fusion in BaF3 cells (FIG. 9).
# [6] = biological target: FGFR2 on SNU-16 gastric cancer cell line with FGFR2 amplification (UniProt P21802); test: FACS on SNU-16 cells, % cells with FITC+ against log antibody concentration; Kd printed in the legend box [cont.]
# [7] = biological target: FGFR2b alpha IIIb antigen (UniProt P21802); test: SPR (Biacore), antibody on chip, FGFR2b alpha IIIb antigen
# 15AA-Nterm FGFR2 = biological target: T1, 15AA-Nterm FGFR2; test: row 'Kd (nM) (patent)', value quoted from the source patent; method: Indirect ELISA-15AA-Nterm FGFR2
# [8] = biological target: FGFR2 on SNU-16 gastric cancer cell line with FGFR2 amplification (UniProt P21802); test: row 'Kd (nM) (FACS)'; FACS on SNU-16 cells
# [9] = biological target: FGFR2 on SNU-16 gastric cancer cell line with FGFR2 amplification (UniProt P21802); test: FACS on SNU-16 cells, % cells with FITC+ [cont.]
Kd [1] [pM],Binding Stoichiometry [2],Kd [2] [pM],EC50 (read off the curve) [4] [µg/mL],Kd (FGFR2b alpha IIIb) [pM],Kd [6] [pM],Kd [7] [pM],Kd (15AA-Nterm FGFR2) [pM],Kd [8] [pM],EC50 (read off the curve) [9] [µg/mL],Molecule,inhibition of growth of NIH3T3 cells overexpressing FGFR2-BICC1 compared to parental antibodies [3],agonist activity in the absence of FGF ligands [5]
870,1.2,870,,,,,,,,"FGFR_GA/GE_FL (bispecific antibody, part only; not given: Constant regions with duobody mutation, part only) heavy chain, GA arm, part: QVQLVQSGAEVKKPGSSVKVSCKASGYIFTTYNVHWVRQAPGQGLEWIGSIYPDNGDTSYNQNFKGRATITADKSTSTAYMELSSLRSEDTAVYYCARGDFAYWGQGTLVTVSS light chain, GA arm: DIQMTQSPSSLSASVGDRVTITCKASQGVSNDYAWYQQKPGKAPKLLIYSASYRYTGVPSRFSGSGSGTDFTFTISSLQPEDIATYYCQQHSTTPYTFGQGTKLEIK heavy chain, GE arm, part: EVQLVESGGGLVQPGGSLRLSCAASGFPFTSTGISWVRQAPGKGLEWVGRTHLGDGSTNYADSVKGRFTISADTSKNTAYLQMNSLRAEDTAVYYCARTYGIYDTYDMYTEYVMDYWGQGTLVTVSS light chain, GE arm: DIQMTQSPSSLSASVGDRVTITCRASQDVDTSLAWYKQKPGKAPKLLIYSASFLYSGVPSRFSGSGSGTDFTLTISSLQPEDFATYYCQQSTGHPQTFGQGTKVEIK",,
420,1.3,420,,,,,,,,"Biparatopic antibody GE/N12 (bispecific antibody, V domains shown) VH 1: EVQLVESGGGLVQPGGSLRLSCAASGFPFTSTGISWVRQAPGKGLEWVGRTHLGDGSTNYADSVKGRFTISADTSKNTAYLQMNSLRAEDTAVYYCARTYGIYDTYDMYTEYVMDYWGQGTLVTVSS VL 1: DIQMTQSPSSLSASVGDRVTITCRASQDVDTSLAWYKQKPGKAPKLLIYSASFLYSGVPSRFSGSGSGTDFTLTISSLQPEDFATYYCQQSTGHPQTFGQGTKVEIK VH 2: QVQLVQSGAEVKKPGESLKISCKGSGYSFTNYYIHWVRQMPGKGLEWMGAIYPDNSDTTYSPSFQGQVTISADKSISTAYLQWSSLKASDTAMYYCARGADIWGQGTLVTVSS VL 2: DIQMTQSPSSLSASVGDRVTITCRASQDIDPYLSNWYQQKPGKAPKLLIYDASNLQSGVPSRFSGSGSGTDFTLTISSLQPEDFATYYCQQTTSHPYTFGQGTKVEIK",more efficient and potent; also recorded: more effective and potent,
,1.7,,4,16000,30700,16000,105000,30700,0.1,"M048-D01 (antibody, V domains shown, Parental bivalent monospecific antibody; also called Antibody A; Bayer) VH: EVQLLESGGGLVQPGGSLRLSCAASGFTFSSYAMSWVRQAPGKGLEWVSAISGSGTSTYYADSVKGRFTISRDNSKNTLYLQMNSLRAEDTAVYYCARVRYNWNHGDWFDPWGQGTLVTVSS VL: QSVLTQPPSASGTPGQRVTISCSGSSSNIGNNYVSWYQQLPGTAPKLLIYENYNRPAGVPDRFSGSKSGTSASLAISGLRSEDEADYYCSSWDDSLNYWVFGGGTKLTVLG",,agonist activity
370,1.3,370,,,,,,,,"Biparatopic antibody B/GE (bispecific antibody, V domains shown) VH 1: EVQLLESGGGLVQPGGSLRLSCAASGFTFSSYAMSWVRQAPGKGLEWVSAISGSGTSTYYADSVKGRFTISRDNSKNTLYLQMNSLRAEDTAVYYCARVRYNWNHGDWFDPWGQGTLVTVSS VL 1: QSVLTQPPSASGTPGQRVTISCSGSSSNIGNNYVSWYQQLPGTAPKLLIYENYNRPAGVPDRFSGSKSGTSASLAISGLRSEDEADYYCSSWDDSLNYWVFGGGTKLTVLG VH 2: EVQLVESGGGLVQPGGSLRLSCAASGFPFTSTGISWVRQAPGKGLEWVGRTHLGDGSTNYADSVKGRFTISADTSKNTAYLQMNSLRAEDTAVYYCARTYGIYDTYDMYTEYVMDYWGQGTLVTVSS VL 2: DIQMTQSPSSLSASVGDRVTITCRASQDVDTSLAWYKQKPGKAPKLLIYSASFLYSGVPSRFSGSGSGTDFTLTISSLQPEDFATYYCQQSTGHPQTFGQGTKVEIK",more efficient and potent; also recorded: more effective and potent,
,1.9,,0.02,,130,1700,,130,0.02,"10164 (antibody, V domains shown, the duobody scheme implies IgG1 with K409R or F405L; also called Antibody C; N10164) VH: QVQLVESGGGLVKPGGSLRLSCAASGFTFSSYALSWVRQAPGKGLEWVGRIRSKIDGGTTDYAAPVKGRFTISRDDSKNTLYLQMNSLKTEDTAVYYCARDRSPSDSSAFAIWGQGTLVTVSS VL: DIELTQPPSVSVSPGQTASITCSGDNLGSQYVDWYQQKPGQAPVLVIYDDNDRPSGIPERFSGSNSGNTATLTISGTQAEDEADYYCQSWDSLSVVFGGGTKLTVLG",,
,,,,,,,,,,"GE/N10: biparatopic antibody combining parental antibodies GE (Antibody D) and N10 (Antibody C) (antibody, V domains shown) VH 1: EVQLVESGGGLVQPGGSLRLSCAASGFPFTSTGISWVRQAPGKGLEWVGRTHLGDGSTNYADSVKGRFTISADTSKNTAYLQMNSLRAEDTAVYYCARTYGIYDTYDMYTEYVMDYWGQGTLVTVSS VL 1: DIQMTQSPSSLSASVGDRVTITCRASQDVDTSLAWYKQKPGKAPKLLIYSASFLYSGVPSRFSGSGSGTDFTLTISSLQPEDFATYYCQQSTGHPQTFGQGTKVEIK VH 2: QVQLVESGGGLVKPGGSLRLSCAASGFTFSSYALSWVRQAPGKGLEWVGRIRSKIDGGTTDYAAPVKGRFTISRDDSKNTLYLQMNSLKTEDTAVYYCARDRSPSDSSAFAIWGQGTLVTVSS VL 2: DIELTQPPSVSVSPGQTASITCSGDNLGSQYVDWYQQKPGQAPVLVIYDDNDRPSGIPERFSGSNSGNTATLTISGTQAEDEADYYCQSWDSLSVVFGGGTKLTVLG",more efficient and potent; also recorded: more effective and potent,
